Values quoted from earlier work, collected in article PMC4474783.
pKd: −log10 of the molar value.

What was measured:
calnexin (Homo sapiens) = calnexin (Homo sapiens) (UniProt P27824)
[1] = target: calreticulin (Homo sapiens) (UniProt P27797)
[2] = target: calreticulin 189-288 (Homo sapiens) (UniProt P27797)
[3] = target: calnexin P-domain (Homo sapiens) (UniProt P27824); assay: ITC

pKd (calnexin (Homo sapiens))	pKd [1]	pKd [2]	pKd [3]	Substance
5.00	5.00			CypB (from UniProt P23284)
		5.05	4.59	ERp57 (from UniProt P30101)
